From US7067117 (CAMBRIDGE UNIVERSITY TECHNICAL SERVICES, dated 2006)
Where “and” joins values, the source holds several entries; their conditions need not be identical. Identical values can stand only once. Like-named read-outs stand apart in the source and are kept apart here. Each block holds one molecule with its values, some of them ahead of it. Ends that are not written are not given here.

Experiments:
[1] = biological target: chemokine receptors on THP-1 cells; test: cell-based or functional assay
[2] = biological target: T1, Duffy Antigen Receptor for Chemokines (DARC) (human) (UniProt Q16570); test: DARC binding; given as 'affinity constant'
T1 sequence (looked up): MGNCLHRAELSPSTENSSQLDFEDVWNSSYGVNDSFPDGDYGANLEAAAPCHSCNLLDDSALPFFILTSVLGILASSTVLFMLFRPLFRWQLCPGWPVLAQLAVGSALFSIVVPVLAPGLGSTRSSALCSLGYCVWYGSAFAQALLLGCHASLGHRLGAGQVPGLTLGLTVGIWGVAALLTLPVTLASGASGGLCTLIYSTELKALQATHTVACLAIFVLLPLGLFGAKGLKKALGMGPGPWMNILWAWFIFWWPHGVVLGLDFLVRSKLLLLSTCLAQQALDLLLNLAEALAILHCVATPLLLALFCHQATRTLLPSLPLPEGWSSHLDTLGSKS

[3] = biological target: chemokine receptors on THP-1 cells; test: binding to chemokine receptors on THP-1 cells; given as 'association constant'
[4] = biological target: T1, Duffy Antigen Receptor for Chemokines (DARC) (human); test: estimated ka for binding to red blood cells divided by inhibitory ED50 (THP-1 migration)
[5] = biological target: chemokine receptors on THP-1 cells; test: cell-based or functional assay; remark: listed apart in the source
[6] = biological target: T2, Duffy Antigen Receptor for Chemokines (DARC) (human), Q16570; test: estimated ka for binding to red blood cells divided by average inhibitory ED50 (THP-1 migration); details: remark: other sources report otherwise
T2 chain: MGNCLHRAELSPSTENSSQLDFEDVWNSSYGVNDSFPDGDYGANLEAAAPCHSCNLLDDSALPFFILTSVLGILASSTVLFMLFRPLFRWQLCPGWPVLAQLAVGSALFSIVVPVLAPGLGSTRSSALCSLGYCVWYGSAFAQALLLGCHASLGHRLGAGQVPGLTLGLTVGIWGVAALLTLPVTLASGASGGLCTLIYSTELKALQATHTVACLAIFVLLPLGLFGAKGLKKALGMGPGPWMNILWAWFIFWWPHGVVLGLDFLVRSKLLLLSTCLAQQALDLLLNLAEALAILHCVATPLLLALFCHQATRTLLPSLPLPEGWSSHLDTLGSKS

[7] = biological target: chemokine receptors on the surface of Jurkat cells; test: biotinylated peptide binding to Jurkat cells
[8] = biological target: chemokine receptors on THP-1 cells; test: biotinylated derivative mixed with THP-1 cells
[9] = biological target: chemokine receptors on THP-1 cells; test: cell-based or functional assay; remark: listed apart in the source
[10] = biological target: T1, Duffy Antigen Receptor for Chemokines (DARC) (human); test: ka for red blood cells divided by ED50
[11] = biological target: T1, Duffy Antigen Receptor for Chemokines (DARC) (human); test: estimated ka for binding to red blood cells divided by average inhibitory ED50 (THP-1 migration)
[12] = biological target: T3, Duffy Antigen Receptor for Chemokines (DARC) (human, UniProt Q16570 1-336); test: Duffy binding
T3 construct: whole, on cells
T3 sequence (looked up): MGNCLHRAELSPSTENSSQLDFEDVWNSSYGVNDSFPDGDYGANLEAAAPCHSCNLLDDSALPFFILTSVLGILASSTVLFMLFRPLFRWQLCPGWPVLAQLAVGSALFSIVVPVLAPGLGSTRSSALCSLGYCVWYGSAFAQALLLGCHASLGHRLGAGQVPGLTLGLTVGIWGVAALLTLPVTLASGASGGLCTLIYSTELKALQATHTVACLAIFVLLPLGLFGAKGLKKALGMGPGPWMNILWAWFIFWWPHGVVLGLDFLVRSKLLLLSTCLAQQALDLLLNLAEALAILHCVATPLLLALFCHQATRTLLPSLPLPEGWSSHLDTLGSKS
Protocol: (§1) To overcome this difficulty, the ka for association of DARC with peptide 3(1–12)[MCP-1] (SEQ ID NO:1) and peptide 2(1–15)[MCP-1] […] After binding has reached equilibrium (30 minutes at 37° C.), the cells are separated from the unbound label by centrifugation for 5 minutes through a sucrose gradient. Counts associated with the cells are then determined by gamma-counting scintigraphy. […] Furthermore, Scatchard analysis confirms the presence of a single high affinity binding site with 500–1000 copies per cell, consistent with the known properties of DARC.

[13] = biological target: T4, Duffy Antigen Receptor for Chemokines (DARC) (human, UniProt Q16570 1-336); test: DARC binding
T4 chain: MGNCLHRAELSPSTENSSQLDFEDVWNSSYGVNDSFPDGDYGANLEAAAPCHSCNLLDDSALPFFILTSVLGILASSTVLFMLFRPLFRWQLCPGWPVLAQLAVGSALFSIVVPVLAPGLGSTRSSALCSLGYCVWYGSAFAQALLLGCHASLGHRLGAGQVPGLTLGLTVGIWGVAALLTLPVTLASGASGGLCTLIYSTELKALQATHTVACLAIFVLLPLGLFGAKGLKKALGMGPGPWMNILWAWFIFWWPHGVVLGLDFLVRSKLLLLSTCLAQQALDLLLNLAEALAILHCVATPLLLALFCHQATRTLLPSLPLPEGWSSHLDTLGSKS

[14] = biological target: T3, Duffy Antigen Receptor for Chemokines …; test: competition binding analysis using red blood cells
Protocol: as §1

[15] = biological target: T3, Duffy Antigen Receptor for Chemokines …; test: ka for binding to red blood cells divided by ka for binding to THP-1 cells
[16] = biological target: chemokine receptors on THP-1 cells; test: estimated ka for binding to THP-1 cells (competition binding analysis), printed under 'AVERAGE ED50 (µM)'
[17] = biological target: T3, Duffy Antigen Receptor for Chemokines …; test: DARC binding
Protocol: as §1

[18] = biological target: T3, Duffy Antigen Receptor for Chemokines …; test: DARC binding on red blood cells
Protocol: as §1

% inhibition of migration induced by MCP-1 at 100 µM tripeptide [1]: 95% | % inhibition of migration induced by SDF1α at 100 µM tripeptide [1]: 29% | ED50 as inhibitor of MCP-1 induced THP-1 migration [1]: 2 to 5 µM | ED50 for inhibition of THP-1 migration induced by the one chemokine it is specific for (MCP-1) [1]: 6 µM | ED50 for inhibition of THP-1 migration versus MCP1 [1]: 7 µM | Kd [2]: 15 µM | Kd [3]: 0.5 µM and 1 µM | Duffy selectivity [4]: 22.3
Molecule: Peptide 3(7-9)[MCP-1], i.e, KQK

ED50 for inhibition of THP-1 migration versus IL8 [9]: < 1 µM | ED50 for inhibition of THP-1 migration versus MCP1 [9]: 8 µM | ED50 for inhibition of THP-1 migration versus MIP1α [9]: < 1 µM | ED50 for inhibition of THP-1 migration versus SDF1α [9]: < 1 µM | ED50 for inhibition of migration induced by IL-8 [9]: 1 µM | ED50 for inhibition of migration induced by MCP-1 [9]: 8 µM | ED50 for inhibition of migration induced by MIP1α [9]: 7.5 µM | ED50 for inhibition of migration induced by RANTES [9]: 1.5 µM | ED50 for inhibition of migration induced by SDF1α [9]: 2 µM | average ED50 for inhibition of THP-1 migration induced by each of the chemokines [9]: 2 µM | Duffy selectivity [10]: 10 | Kd [2]: 2 µM | Duffy selectivity [11]: 24.8
B3: Peptide 3(10-12)[MCP-1], i.e., WVQ (peptide)
peptide: WVQ

Kd [17]: 20 to 100 µM
B5: Ser10 variant of peptide 2(1-15)[MCP-1] (peptide)
peptide: SYRRITSSKSPKEAV

Kd [18]: ~50 µM
B6: Peptide 2(1-9)[MCP-1] (peptide)
peptide: SYRRITSSK

The next lines start with the molecule.

B1: peptide 3(1-12)[MCP-1] (peptide)
peptide: EICADPKQKWVQ
% inhibition of THP-1 migration at 100 µM versus IL8 [5]: 103% | % inhibition of THP-1 migration at 100 µM versus MCP-1 [5]: 112% | % inhibition of THP-1 migration at 100 µM versus MIP1α [5]: 99% | % inhibition of THP-1 migration at 100 µM versus SDF-1α [5]: 107% | ED50 for inhibition of THP-1 migration versus IL8 [5]: 14 µM | ED50 for inhibition of THP-1 migration versus MCP-1 [5]: 8 µM | ED50 for inhibition of THP-1 migration versus MIP1α [5]: 8 µM | ED50 for inhibition of THP-1 migration versus SDF-1α [5]: 10 µM | average ED50 for inhibition of THP-1 migration induced by each of the chemokines [5]: 10 µM | inhibition of MCP-1 induced THP-1 migration at 100 µM, peptide incubated with the cells [5]: > 99% | inhibition of MCP-1 induced THP-1 migration at 100 µM, peptide incubated with the chemokine [5]: 17% | Duffy selectivity [6]: 1

B2: biotinylated peptide 2(1-15)[MCP-1] (peptide)
peptide: SYRRITSSKCPKEAV
modifications: also: biotinylated, position not given here
Kd [7]: 3 µM | Kd [8]: 1.9 µM

B4: peptide 2(1-15)[MCP-1] (peptide)
peptide: SYRRITSSKCPKEAV
notes: synthetic linear L-form peptide; also called Pep2[MCP1]; Pep2(1-15)[MCP1]
Kd [12]: 100 µM | ED50 for inhibition of chemokine-induced THP-1 migration [5]: > 100 µM | inhibition of chemokine-induced THP-1 migration at 100 µM [5]: 19% | promotion of THP-1 migration (agonist activity) [5]: 10 µM | Kd [13]: 0.35 µM | Kd [14]: < 0.5 µM | Duffy selectivity [15]: 0.18 ratio | Kd [16]: 2 µM
